In patent publication US5766899:

Tests used:
[1] = target: CS receptor on primary mouse hepatocytes (mouse)
[2] = target: CS receptor on primary mouse hepatocytes (mouse); remark: listed apart in the source
[3] = substrate: CS receptor on primary mouse hepatocytes (mouse); remark: listed apart in the source

| Molecule | transfection efficiency of primary hepatocytes (X-gal staining) (% transfection efficiency) [1] | further results |
| --- | --- | --- |
| BSA/poly(L-lysine) conjugate (from UniProt P02769) | < 10 | – |
| DHFR-CSF1-His6/poly(L-lysine) conjugate (from UniProt P00375) | – | Blue cells (%) after transfection of primary hepatocytes with conjugate/pCMV-β-gal DNA complex (X-gal staining) [2]: < 1 % blue cells |
| poly(L-lysine) | < 5 | – |
| EWSPCSVTCGNGIQVRIKPGSAN [Peptide E35] | – | inhibition of β-galactosidase activity (ONPG) in CS27IVC-His6 conjugate-mediated gene transfer into primary hepatocytes (% inhibited at 0.125 µM) [3]: 50 |
